Experimental data as given in patent US5914109.
Read-outs that look alike come from different tables or passages of the source.

Tests used:
[1] = target: gp41 of HIVMN (virus) (HIV-1 strain MN)
[2] = target: gp120 of HIVMN (HIV-1 strain MN) (UniProt P05877)
[3] = target: gp120 of HIVMN (HIV-1 strain MN) (UniProt P05877); remark: listed apart in the source
[4] = target: 20-mer V3 peptide of HIVMN (American Bio-Technologies) (HIV-1 strain MN); experiment: Friguet ELISA method, V3 MN peptide
[5] = target: hexapeptide AFYTTK (pin 16) (HIV-1 strain MN); experiment: pin ELISA, hexapeptide on plastic pin
[6] = target: hexapeptide FYTTKN (pin 17) (HIV-1 strain MN); experiment: pin ELISA, hexapeptide on plastic pin
[7] = target: hexapeptide GPGRAF (pin 12) (HIV-1 strain MN); experiment: pin ELISA, hexapeptide on plastic pin
[8] = target: hexapeptide GRAFYT (pin 14) (HIV-1 strain MN); experiment: pin ELISA, hexapeptide on plastic pin
[9] = target: hexapeptide HIGPGR (pin 10) (HIV-1 strain MN); experiment: pin ELISA, hexapeptide on plastic pin
[10] = target: hexapeptide IGPGRA (pin 11) (HIV-1 strain MN); experiment: pin ELISA, hexapeptide on plastic pin
[11] = target: hexapeptide IHIGPG (pin 9) (HIV-1 strain MN); experiment: pin ELISA, hexapeptide on plastic pin
[12] = target: hexapeptide KRIHIG (pin 7) (HIV-1 strain MN); experiment: pin ELISA, hexapeptide on plastic pin
[13] = target: hexapeptide KRKRIH (pin 5) (HIV-1 strain MN); experiment: pin ELISA, hexapeptide on plastic pin
[14] = target: hexapeptide NKRKRI (pin 4) (HIV-1 strain MN); experiment: pin ELISA, hexapeptide on plastic pin
[15] = target: hexapeptide PGRAFY (pin 13) (HIV-1 strain MN); experiment: pin ELISA, hexapeptide on plastic pin
[16] = target: hexapeptide RAFYTT (pin 15) (HIV-1 strain MN); experiment: pin ELISA, hexapeptide on plastic pin
[17] = target: hexapeptide RIHIGP (pin 8) (HIV-1 strain MN); experiment: pin ELISA, hexapeptide on plastic pin
[18] = target: hexapeptide RKRIHI (pin 6) (HIV-1 strain MN); experiment: pin ELISA, hexapeptide on plastic pin
[19] = target: hexapeptide TKNIIG (pin 20) (HIV-1 strain MN); experiment: pin ELISA, hexapeptide on plastic pin
[20] = target: hexapeptide TTKNII (pin 19) (HIV-1 strain MN); experiment: pin ELISA, hexapeptide on plastic pin
[21] = target: hexapeptide YNKRKR (pin 3) (HIV-1 strain MN); experiment: pin ELISA, hexapeptide on plastic pin
[22] = target: hexapeptide YTTKNI (pin 18) (HIV-1 strain MN); experiment: pin ELISA, hexapeptide on plastic pin
[23] = target: recombinant gp120 protein of HIVSF2 (produced in CHO cells) (HIV-1 isolate SF-2) (UniProt P03378); experiment: Friguet method; reference: the 20-mer SF-2 peptide
[24] = target: 20-mer V3 peptide of HIVMN (American Bio-Technologies) (HIV-1 strain MN); experiment: competition ELISA in solution at equilibrium (Friguet method)
[25] = target: 20-mer V3 peptide of HIVSF2 (HIV-1 isolate SF-2); experiment: as above
[26] = target: 20-mer V3 peptide of HIVSF2 (HIV-1 isolate SF-2); experiment: as above; remark: listed apart in the source
[27] = target: recombinant gp120 protein of HIVSF2 (produced in CHO cells) (HIV-1 isolate SF-2) (UniProt P03378); experiment: as above

Substance | neutralizing antibody titer (50%), MT-2 plaque assay, 1 hr, no complement [2] [ng/mL] | neutralizing antibody titer (50%), MT-2 plaque assay, 18 hr with human complement [2] [ng/mL] | 50% neutralization, CEM-SS syncytium-forming assay, IgG concentration [3] [µg/mL] | 90% neutralization, CEM-SS syncytium-forming assay, IgG concentration [3] [µg/mL] | Kd [4] [nM] | ELISA reactivity (absorbance units) (absorbance units) [5] | ELISA reactivity (absorbance units) (absorbance units) [6] | ELISA reactivity (absorbance units) (absorbance units) [7] | ELISA reactivity (absorbance units) (absorbance units) [8] | ELISA reactivity (absorbance units) (absorbance units) [9] | ELISA reactivity (absorbance units) (absorbance units) [10] | ELISA reactivity (absorbance units) (absorbance units) [11] | ELISA reactivity (absorbance units) (absorbance units) [12] | ELISA reactivity (absorbance units) (absorbance units) [13] | ELISA reactivity (absorbance units) (absorbance units) [14] | ELISA reactivity (absorbance units) (absorbance units) [15] | ELISA reactivity (absorbance units) (absorbance units) [16] | ELISA reactivity (absorbance units) (absorbance units) [17] | ELISA reactivity (absorbance units) (absorbance units) [18] | ELISA reactivity (absorbance units) (absorbance units) [19] | also measured
human mAb 50-69 (antibody) |  |  |  |  |  |  |  |  |  |  |  |  |  |  |  |  |  |  |  |  | neutralizing antibody titer (50%), MT-2 plaque assay, 1 hr, no complement (titer (1:x dilution)) [1]: 3; neutralizing antibody titer (50%), MT-2 plaque assay, 18 hr with human complement (titer (1:x dilution)) [1]: 3
human mAb 257-D (antibody) | 3 | 0.3 | 0.01 | 0.88 | 230 | 0.233 | 0.273 | 0.208 | 0.272 | 0.156 | 0.163 | 0.13 | 1.59 | 0.259 | 0.288 | 0.456 | 0.333 | 0.276 | 1.78 | 0.164 | ELISA reactivity (absorbance units) (absorbance units) [20]: 0.219; ELISA reactivity (absorbance units) (absorbance units) [21]: 0.256; ELISA reactivity (absorbance units) (absorbance units) [22]: 0.259; Difference (Kd of the SF-2 peptide against SF-2 recombinant) [23]: 15 fold; Kd [24]: 230 nM; Kd [25]: 220 nM; Kd [26]: 630 nM; Kd [27]: 41.6 nM
human mAb 268-D (antibody) | 23 | 1.1 | 0.1 | 1 | 590 | 0.222 | 0.274 | 0.132 | 0.288 | 1.01 | 0.164 | 0.132 | 0.179 | 0.239 | 0.283 | 0.346 | 0.35 | 0.135 | 0.252 | 0.141 | ELISA reactivity (absorbance units) (absorbance units) [20]: 0.212; ELISA reactivity (absorbance units) (absorbance units) [21]: 0.243; ELISA reactivity (absorbance units) (absorbance units) [22]: 0.259; Kd [24]: 590 nM; Kd [25]: 2300 nM
